Data as given in paper PMC7655986.

Target: T1, recombinant Fc-construct of the Dsg2 extracellular domain, Q14126
T1 chain: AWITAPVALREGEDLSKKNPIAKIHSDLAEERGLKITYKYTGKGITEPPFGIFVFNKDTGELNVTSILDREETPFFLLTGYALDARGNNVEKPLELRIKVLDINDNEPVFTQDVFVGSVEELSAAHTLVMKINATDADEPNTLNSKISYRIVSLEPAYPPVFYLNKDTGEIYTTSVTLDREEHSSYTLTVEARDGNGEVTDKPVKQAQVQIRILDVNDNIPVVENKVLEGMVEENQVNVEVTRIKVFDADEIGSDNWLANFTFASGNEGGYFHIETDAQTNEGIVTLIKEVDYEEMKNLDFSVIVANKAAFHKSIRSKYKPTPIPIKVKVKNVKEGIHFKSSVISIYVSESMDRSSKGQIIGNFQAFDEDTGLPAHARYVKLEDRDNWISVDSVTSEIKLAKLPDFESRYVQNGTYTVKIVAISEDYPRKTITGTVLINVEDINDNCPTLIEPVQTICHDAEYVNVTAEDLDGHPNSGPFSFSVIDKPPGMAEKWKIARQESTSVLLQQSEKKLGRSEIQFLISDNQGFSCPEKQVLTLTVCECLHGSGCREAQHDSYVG
Assay: atomic force microscopy (cell-free single-molecule force measurements); Dsg-Fc constructs (0.15 mg/ml) linked by a PEG linker to the cantilever tip and to mica sheets; Force Mapping mode; binding frequency and unbinding force; pulling speeds from 1 to 20 µm/s and modified Bells equation for the bond lifetime; 5 mM EGTA for 1 h lowered the binding frequency
Conditions: remark: other sources report otherwise

B1: recombinant Fc-construct of the Dsg2 extracellular domain, Q14126 50-609 (Fc fusion)
chain: T1 chain
- bond lifetime: 0.12 s
